Source: the supplement of paper PMC10567573

B1: EPB41L3 (parent)
chain: SDYISEFRFAPNHTKELEDKVIEL
B2: ZNF263 (parent)
chain: QRTHTGEKPYKCPECGEIFAHSSN

Variants of: B1
Assay: protein stability index of a GFP-peptide fusion (GPS, HEK-293T) (PSI 1-6); higher = more stable
Settings: c terminus: a fixed tail appended
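Also: lentivirally expressed fusions sorted by FACS into six bins by GFP to DsRed ratio, PSI derived from sequencing read proportions per bin multiplied by bin number.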

Point of comparison: SDYISEFRFAPNHTKELEDKVIEP [L24P], protein stability index 2.31. Against it:
- SDYISEFRFAPNHTKELEDKVIEN [L24N] — lower, 2.25
- SDYISEFRFAPNHTKELEDKVIER [L24R] — higher, 2.69
- SDYISEFRFAPNHTKELEDKVIEW [L24W] — higher, 2.44
- SDYISEFRFAPNHTKELEDKVIEQ [L24Q] — higher, 2.71
- SDYISEFRFAPNHTKELEDKVIEI [L24I] — lower, 2.12
- SDYISEFRFAPNHTKELEDKVIES [L24S] — higher, 2.69
- SDYISEFRFAPNHTKELEDKVIEM [L24M] — lower, 2.16
- SDYISEFRFAPNHTKELEDKVIEK [L24K] — higher, 2.96
- SDYISEFRFAPNHTKELEDKVIEH [L24H] — higher, 2.65
- SDYISEFRFAPNHTKELEDKVIEY [L24Y] — lower, 2.08
- SDYISEFRFAPNHTKELEDKVIEV [L24V] — lower, 2.18
- SDYISEFRFAPNHTKELEDKVIET [L24T] — lower, 2.28

Variants of: B2
Assay: as above
Settings: c terminus: a fixed tail appended

Point of comparison: QRTHTGWKPYKCPECGEIFAHSSN [E7W], protein stability index 2.03. Against it:
- QRTHTGEKPYKCPECGEIAAHSSN [F19A] — higher, 4.38
- QRTHTGEKPYKCPECGEIGAHSSN [F19G] — higher, 4.28
- QRTHTGEKPYKCPECGEIRAHSSN [F19R] — higher, 3.75
- QRTHTGEKPYKCPECGEIQAHSSN [F19Q] — higher, 3.83
- QRTHTGEKPYKCGECGEIFAHSSN [P13G] — higher, 3.71
- QRTHTGEKPYKCWECGEIFAHSSN [P13W] — higher, 2.71
- QRTHTGEKPYKCMECGEIFAHSSN [P13M] — higher, 2.71
- QRTHTGEKPYKCFECGEIFAHSSN [P13F] — higher, 2.52
- QRTHTGEKPYKCCECGEIFAHSSN [P13C] — higher, 3.1
- QRTHTGEKPYKCRECGEIFAHSSN [P13R] — higher, 2.94
- QRTHTGEKPYKCQECGEIFAHSSN [P13Q] — higher, 3.67
- QRTHTGEKPYKCSECGEIFAHSSN [P13S] — higher, 3.41
- CRTHTGEKPYKCPECGEIFAHSSN [Q1C] — higher, 4.76
- YRTHTGEKPYKCPECGEIFAHSSN [Q1Y] — higher, 2.57
- FRTHTGEKPYKCPECGEIFAHSSN [Q1F] — higher, 2.74
- WRTHTGEKPYKCPECGEIFAHSSN [Q1W] — lower, 2.01
- GRTHTGEKPYKCPECGEIFAHSSN [Q1G] — higher, 3.06
- NRTHTGEKPYKCPECGEIFAHSSN [Q1N] — higher, 3.46
- LRTHTGEKPYKCPECGEIFAHSSN [Q1L] — higher, 2.76
- IRTHTGEKPYKCPECGEIFAHSSN [Q1I] — higher, 2.54
- VRTHTGEKPYKCPECGEIFAHSSN [Q1V] — higher, 2.85
- QTTHTGEKPYKCPECGEIFAHSSN [R2T] — higher, 3.45
- QATHTGEKPYKCPECGEIFAHSSN [R2A] — higher, 3.34
- QPTHTGEKPYKCPECGEIFAHSSN [R2P] — higher, 3.77
- QQTHTGEKPYKCPECGEIFAHSSN [R2Q] — higher, 3.3
- QFTHTGEKPYKCPECGEIFAHSSN [R2F] — higher, 2.82
- QRTHTGEKPYKCPECVEIFAHSSN [G16V] — higher, 3.61
- QRTHTGEKPYKCPECNEIFAHSSN [G16N] — higher, 3.09
- QRTHTGEKPYKCPECKEIFAHSSN [G16K] — higher, 3.27
- QRTHTGEKPYKCPECFEIFAHSSN [G16F] — higher, 2.92
- QRTHTGEKPYKCPECIEIFAHSSN [G16I] — higher, 2.67
- QRTHTGEKPYKCPECTEIFAHSSN [G16T] — higher, 3.43
- QRTHTGEKPYKCPECHEIFAHSSN [G16H] — higher, 3.31
- QRTHTGEKPYKCPECWEIFAHSSN [G16W] — higher, 2.64
- QRTHTGEAPYKCPECGEIFAHSSN [K8A] — higher, 3.31
- QRTHTGERPYKCPECGEIFAHSSN [K8R] — higher, 3.74
- QRTHTGEPPYKCPECGEIFAHSSN [K8P] — higher, 3.4
- QRTHTGEFPYKCPECGEIFAHSSN [K8F] — higher, 2.89
- QRTHTGESPYKCPECGEIFAHSSN [K8S] — higher, 3.36
- QRTHTGEYPYKCPECGEIFAHSSN [K8Y] — higher, 3.34
- QRTHTGECPYKCPECGEIFAHSSN [K8C] — higher, 5.15
- QRTHTGEDPYKCPECGEIFAHSSN [K8D] — higher, 3.3
- QRTHTGENPYKCPECGEIFAHSSN [K8N] — higher, 3.46
- QRTHTGEGPYKCPECGEIFAHSSN [K8G] — higher, 3.81
- QRTHTGEHPYKCPECGEIFAHSSN [K8H] — higher, 3.35
- QRTHTGEKPYKGPECGEIFAHSSN [C12G] — higher, 3.98
- QRTHTGEKPYKLPECGEIFAHSSN [C12L] — higher, 3.77
- QRTHTGSKPYKCPECGEIFAHSSN [E7S] — higher, 3.05
- QRTHTGRKPYKCPECGEIFAHSSN [E7R] — higher, 2.33
- QRTHTGPKPYKCPECGEIFAHSSN [E7P] — higher, 3.42
- QRTHTGHKPYKCPECGEIFAHSSN [E7H] — higher, 3.44
- QRTHTGTKPYKCPECGEIFAHSSN [E7T] — higher, 3.01
- QRTHTGLKPYKCPECGEIFAHSSN [E7L] — higher, 2.49
- QRTHTGYKPYKCPECGEIFAHSSN [E7Y] — higher, 2.36
- QRTHTGIKPYKCPECGEIFAHSSN [E7I] — higher, 2.62
- QRTHTGCKPYKCPECGEIFAHSSN [E7C] — higher, 3.93
- QRTHTGQKPYKCPECGEIFAHSSN [E7Q] — higher, 3.16
- QRTHTGEKPYKCPECGMIFAHSSN [E17M] — higher, 3.27
- QRTHTGEKPYKCPECGKIFAHSSN [E17K] — higher, 3.98
- QRTHTGEKPYKCPECGRIFAHSSN [E17R] — higher, 3.38
- QRTHTGEKPYKCPECGYIFAHSSN [E17Y] — higher, 4.23
- QRTHTGEKPYKCPECGWIFAHSSN [E17W] — higher, 3.01
- QRTHTGEKPYKCPECGHIFAHSSN [E17H] — higher, 4.49
- QRTHTGEKPYKCPECGNIFAHSSN [E17N] — higher, 3.83
- QRTHTGEKPYKCPECGPIFAHSSN [E17P] — higher, 3.72
- QRTHHGEKPYKCPECGEIFAHSSN [T5H] — higher, 3.75
- QRTHCGEKPYKCPECGEIFAHSSN [T5C] — higher, 3.81
- QRTHMGEKPYKCPECGEIFAHSSN [T5M] — higher, 3.09
- QRTHFGEKPYKCPECGEIFAHSSN [T5F] — higher, 2.92
- QRTHIGEKPYKCPECGEIFAHSSN [T5I] — higher, 3.03
- QRTHYGEKPYKCPECGEIFAHSSN [T5Y] — higher, 3.11
- QRTHPGEKPYKCPECGEIFAHSSN [T5P] — higher, 2.74
- QRTHDGEKPYKCPECGEIFAHSSN [T5D] — higher, 3.6
- QRTGTGEKPYKCPECGEIFAHSSN [H4G] — higher, 3.25
- QRTSTGEKPYKCPECGEIFAHSSN [H4S] — higher, 3.7
- QRTITGEKPYKCPECGEIFAHSSN [H4I] — higher, 3.01
- QRTHTGEKPYWCPECGEIFAHSSN [K11W] — higher, 3.23
- QRTHTGEKPYVCPECGEIFAHSSN [K11V] — higher, 3.17
- QRTHTGEKPYYCPECGEIFAHSSN [K11Y] — higher, 3.03
- QRTHTGEKPYRCPECGEIFAHSSN [K11R] — higher, 3.23
